The target of assay [1] is T1, KDR (VEGFR-2), full-length receptor on cells (human, UniProt P35968 20-1356). The assay is described as follows: cell-based or functional assay.
In assay [2] the target is T1, KDR (VEGFR-2), full-length receptor on …. The assay is described as follows: competition with 300 pM 125I-VEGF on KDR-transfected 293H cells; peptide 30 µM.
Protocol: (§1) Cells were used 24 h after transfection, and to prepare the cells for the assay, they were washed 3 times with room temperature Ml 99 medium and placed in the refrigerator. […] Each dilution was added to three separate wells of mock and KDR transfected cells. Aflter incubating at 4° C. for 2 h, the plates were washed 5 times with cold binding buffer, gently blotted dry and checked under a microscope for cell loss. 100 μL of solubilizing solution (2% Triton X-100, 10% Glycerol, 0.1% BSA) was added to each well and the plates were incubated at room temperature for 30 minutes. The solubilizing solution in each well was mixed by pipeting up and down, and transferred to 1.2 mL tubes. Each well was washed twice with 100 μL of solubilizing solution and the washes were added to the corresponding 1.2 mL tube.
The target is the same in assay [3]. The assay is described as follows: competition with 300 pM 125I-VEGF on KDR-transfected 293H cells; peptide 0.3 µM.
Protocol: as §1

Positions of bridges follow the written chain, without caps; N, C: chain ends.

T1 sequence (P35968 20-1356): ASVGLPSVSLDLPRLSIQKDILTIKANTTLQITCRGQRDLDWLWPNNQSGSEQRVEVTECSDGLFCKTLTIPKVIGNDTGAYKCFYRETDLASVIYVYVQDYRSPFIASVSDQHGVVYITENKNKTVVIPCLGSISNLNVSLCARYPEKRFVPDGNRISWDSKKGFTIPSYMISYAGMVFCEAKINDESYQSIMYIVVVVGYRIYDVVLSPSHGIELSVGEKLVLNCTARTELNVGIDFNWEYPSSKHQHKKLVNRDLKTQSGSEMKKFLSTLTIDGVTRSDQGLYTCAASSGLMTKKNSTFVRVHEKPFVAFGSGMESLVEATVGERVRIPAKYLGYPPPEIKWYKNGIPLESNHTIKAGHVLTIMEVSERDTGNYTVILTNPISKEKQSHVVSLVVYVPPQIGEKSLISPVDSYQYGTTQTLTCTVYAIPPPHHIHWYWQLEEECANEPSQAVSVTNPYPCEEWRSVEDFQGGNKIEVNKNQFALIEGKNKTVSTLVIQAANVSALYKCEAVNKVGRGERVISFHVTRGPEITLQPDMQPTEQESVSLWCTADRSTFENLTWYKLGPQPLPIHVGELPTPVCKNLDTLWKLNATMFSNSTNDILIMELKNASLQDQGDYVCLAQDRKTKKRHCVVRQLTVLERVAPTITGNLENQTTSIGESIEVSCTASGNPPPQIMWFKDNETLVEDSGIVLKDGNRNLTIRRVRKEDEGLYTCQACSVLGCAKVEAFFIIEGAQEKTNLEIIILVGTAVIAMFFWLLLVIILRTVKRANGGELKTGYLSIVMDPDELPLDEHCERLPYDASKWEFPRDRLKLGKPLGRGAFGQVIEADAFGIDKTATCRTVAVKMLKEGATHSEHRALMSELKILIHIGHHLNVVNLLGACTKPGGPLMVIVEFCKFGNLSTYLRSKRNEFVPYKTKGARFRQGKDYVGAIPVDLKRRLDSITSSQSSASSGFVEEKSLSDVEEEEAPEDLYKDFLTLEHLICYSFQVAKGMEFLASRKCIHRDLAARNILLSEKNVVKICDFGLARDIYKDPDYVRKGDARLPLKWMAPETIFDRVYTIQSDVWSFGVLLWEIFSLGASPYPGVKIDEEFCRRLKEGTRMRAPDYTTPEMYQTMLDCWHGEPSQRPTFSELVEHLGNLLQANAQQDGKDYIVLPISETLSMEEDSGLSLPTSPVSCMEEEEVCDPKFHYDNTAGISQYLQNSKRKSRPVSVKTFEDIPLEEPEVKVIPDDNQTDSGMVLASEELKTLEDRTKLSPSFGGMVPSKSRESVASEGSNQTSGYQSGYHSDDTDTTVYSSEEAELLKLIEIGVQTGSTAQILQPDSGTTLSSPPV

Ac-AGWIECYHPDGICYHFGTGGGK-NH2 (disulfide 6-13 (inferred)) [P2-D]: the “inhibition of VEGF-induced KDR phosphorylation” value in assay [1] is not below 50 % inhibition at 10 µM.
Ac-GDSRVCWEDSWGGEVCFRYDPGGGK-NH2 (disulfide 6-16 (inferred)) [P6-D]: in assay [1], the “IC50, receptor activation assay” value was found to be 1000 nM and the “inhibition of VEGF-induced KDR phosphorylation” value is not below 50 % inhibition at 10 µM. Also, the “% inhibition of 125I-labeled VEGF binding” value in assay [2] was determined as 96.3%. The “% inhibition of 125I-labeled VEGF binding” value in assay [3] worked out at 52.3%.
